Patent US20040175379A1 (AbbVie / Abbott, published 2004)
Changes are numbered by the printed parent chain.

T1: soluble human EPO receptor (human, UniProt P19235 25-250, limits assumed)
T1 construct: Only called 'soluble'
T1 sequence (looked up): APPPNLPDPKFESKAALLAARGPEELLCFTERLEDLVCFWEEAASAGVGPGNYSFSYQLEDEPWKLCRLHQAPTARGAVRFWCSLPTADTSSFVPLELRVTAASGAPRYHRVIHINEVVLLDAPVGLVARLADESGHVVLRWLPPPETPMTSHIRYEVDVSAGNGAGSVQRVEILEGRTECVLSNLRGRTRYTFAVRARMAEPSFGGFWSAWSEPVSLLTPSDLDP

T2: biotinylated EpoR (Abbott CHO cell derived ref.#RB69084:4) (UniProt P19235 25-250, limits assumed, biotinylated with biotin-NHS (sites not given))
T2 construct: also called biotin EpoR; biotin-EpoR
T2 sequence (looked up): T1 sequence (looked up)

B1: Ab198 (human anti-EPO-R antibody expressed by the cell line designated ABT2-SCX-198) (antibody, human IgG2, V domains shown)
VH: QVQLVESGGGVVQPGRSLRLSCVASGFTFSSYGMHWVRQAPGKGLEWVAVISYDGSNKYYADSVKGRFTISRDNSKNTLYLQMNSLRVEDTAVYYCARDHGGRYVYDYGMDVWGQGTTVTVSS
VL: DIQMTQSPSSVSASIGDRVSITCRASQGISSWLAWYQQKPGKAPTLLIYAASTLQRGVPSRFSGSGSGTDFTLTISSLQPEDFATYFCQQANSFPFTFGPGTKVDIK
B2: Ab12 (human anti-EPO-R antibody expressed by the cell line designated ABT2-SCX-012) (antibody, human IgG2, V domains shown)
VH: QVQLQESGPGLVKPSETLSLTCTVSGASISSYYWSWIRQPPGKGLEWIGYIYYSGSTNYNPSLKSRVTISVDTSKNQFSLKLRSVTAADTAVYYCARERLGIGDYWGQGTLVTVSS
VL: DIQLTQSPSSLSASVGDRVTITCRASQGIRNDLGWYQQKPGKAPKRLIYAASSLQSGVPSRFSGSGSGTEFTLTISSLQPEDFATYYCLQHNTYPPTFGQGTKVEIK
notes: also called AB-ABT2-XG2-012; ABT2-XG2-012
B3: human anti-EPO-R antibody expressed by the cell line designated ABT2-SCX-060 (antibody, human IgG2, V domains shown)
VH: B1 VH with V23A
VL: B1 VL with I15V, T53S
notes: also called Ab60
B4: human anti-EPO-R antibody expressed by the cell line designated ABT2-SCX-145 (antibody, human IgG2, V domains shown)
VH: B1 VH with V23A
VL: B1 VL with I15V, S30G, K42Q, T53S, S76N, I106V
notes: also called Ab145
B5: human anti-EPO-R antibody expressed by the cell line designated ABT2-SCX-267 (antibody, human IgG2, V domains shown)
VH: B1 VH with V23A, R98K
VL: B1 VL with I15V, S30G, K42Q, T53S, S76N, I106V
notes: also called Ab267
B6: human anti-EPO-R antibody expressed by the cell line designated ABT2-SCX-003 (antibody, human IgG2, V domains shown)
VH: B1 VH with V23A
VL: B1 VL with I15V, A34V, T45A, T53S
notes: also called Ab3
B7: human anti-EPO-R antibody expressed by the cell line designated ABT2-SCX-135 (antibody, human IgG2, V domains shown)
VH: B1 VH with V23A
VL: B1 VL with A13T, I15V, S30G, K42Q, T53S, S76N, I106V
notes: also called Ab135
B8: human anti-EPO-R antibody expressed by the cell line designated ABT2-SCX-022 (antibody, human IgG2, V domains shown)
VH: B1 VH with V23A, A49V
VL: B1 VL with I15V, T53S
notes: also called Ab22
B9: human anti-EPO-R antibody expressed by the cell line designated ABT2-SCX-102 (antibody, human IgG2, V domains shown)
VH: B1 VH with V23A
VL: B1 VL with I15V, T45K, L46R, T53S
notes: also called Ab102
B10: human anti-EPO-R antibody expressed by the cell line designated ABT2-SCX-254 (antibody, human IgG2, V domains shown)
VH: QVQLVESGGGVVQPGRSLRLSCAASGFTFSSYGMHWVRQAPGKGLEWVAVIWFDGNNKFYADSVKGRFTISRDNSKNTLYLQMNSLRVEDTAVYYCARGGSYWDYWGQGTLVTVSS
VL: DIVMTQTPLFSFVMIGQPASISCRSRQSLVHSDGNTYLNWLQQRPGQPPRLLIYKTSNRFSGVPDRFSGSGAGTDFTLKISRVEAEDVGVYYCMQATQFPITFGQGTRLEIK
notes: also called Ab254
B11: human anti-EPO-R antibody expressed by the cell line designated ABT2-SCX-054 (antibody, V domains shown)
VH: B10 VH with S31K, I51L, F53Y, N56S, F59Y, V88A, G100P, S101Y, W103F
VL: not shown
notes: also called ABT2-SCX-54; Ab54

Each binder was assayed against T1, soluble human EPO receptor (assay: SPR (Biacore 2000), antibody immobilised on the chip, soluble receptor 10-200 nM injected).
Procedure: Immobilizations of antibody were performed using the default immobilization program in the Biacore software package. Antibodies were diluted to 10 ug/mL in the supplied acetate buffers to prescreen for the appropriate pH at which to conduct the immobilizations. For immobilizations, antibodies were diluted into the appropriate acetate buffer (10 mM acetate pH 4.0) and coupled directly to the chip surface using standard EDC chemistry at three different protein levels (500, 1000, and 1500 RU). The fourth flow cell was mock coupled with EDC to cap the carboxyl groups and provide a background surface as a negative control.
Binding studies were performed by successive injections of varying concentrations of soluble human EPO receptor over the chip surface (500 RU immobilized protein). […]
Data were fit to the models available in the BiaEvaluation 3.0.2 software package (Biacore). […] Dissociation constants were calculated directly from fitting to the Langmuir binding model. For the bivalent analyte model, the dissociation constants were calculated indirectly using the calculated values for the kinetic dissociation and kinetic association constants, kd and kₐ.

| Binder | Kd |
| --- | --- |
| B1 | 13.9 nM |
| B2 | 17.5 nM |

What follows are binders tested against T2, biotinylated EpoR (Abbott CHO cell …) (assay: ELISA, biotin-EpoR on streptavidin plate, HEK 293 supernatant titrated 1:2).
Procedure: The ELISA for antigen specific antibody secretion was performed as follows. Control plates were coated with […] Goat anti-human IgG H+L O/N. For the binding plates, biotin-EpoR (0.7 mcg/mL) was coated onto streptavadin 96 well plates (Sigma, St Louis, Mo.) for one hour at room temperature. The plates were washed five times with dH₂O. Recombinant antibodies were titrated 1:2 for 7 wells from the undiluted minilipofection supernatant. The plates were washed five times with dH₂O. A goat anti-human IgG Fc-specific HRP-conjugated antibody was added at a final concentration of 1 ug/mL for 1 hour at RT for the secretion and the binding ELISA. The plates were washed five times with dH₂O. The plates were developed with the addition of TMB chromogenic substrate (KPL, Gaithersburg, Md.) for 30 minutes and the ELISA was stopped by the addition of 1 M phosphoric acid. Each ELISA plate was analyzed to determine the optical density of each well at 450 nm.

| Binder | Binding (dilution of the supernatant in ELISA) |
| --- | --- |
| B3 | > 64 1:n dilution of supernatant |
| B4 | > 64 1:n dilution of supernatant |
| B5 | > 64 1:n dilution of supernatant |
| B6 | > 64 1:n dilution of supernatant |
| B7 | 4 1:n dilution of supernatant |
| B8 | > 64 1:n dilution of supernatant |
| B1 | > 64 1:n dilution of supernatant |
| B9 | > 64 1:n dilution of supernatant |
| B2 | > 64 1:n dilution of supernatant |
| B10 | 8 1:n dilution of supernatant |
| B11 | > 64 1:n dilution of supernatant |
